One protein from publication PMC11161628, “Omecamtiv mecarbil and Mavacamten target the same myosin pocket despite opposite effects in heart contraction” (Nature Communications, 2024) can be followed below.

This data set concerns the molecule itself. The experiment in a line: crystal structure; PPS-S1-Mava (crystal type B): S1 with Mg.ADP.BeFx and 5 mM Mavacamten, trypsin 1:500 (w:w), hanging drop at 4 °C, 20.5% PEG3350, 7.5% NaTacsimate pH 6.0, 5 mM TCEP; two molecules per asymmetric unit; 2.61 Å.

B1: Bovine β-cardiac myosin S1 fragment, heavy chain (domain or fragment, UniProt Q9BE39 1-810, looked up)
chain: MVDAEMAAFGEAAPYLRKSEKERLEAQTRPFDLKKDVFVPDDKEEFVKATILSREGGKVTAETEHGKTVTVKEDQVLQQNPPKFDKIEDMAMLTFLHEPAVLYNLKERYASWMIYTYSGLFCVTINPYKWLPVYNAEVVAAYRGKKRSEAPPHIFSISDNAYQYMLTDRENQSILITGESGAGKTVNTKRVIQYFAVIAAIGDRSKKEQATGKGTLEDQIIQANPALEAFGNAKTVRNDNSSRFGKFIRIHFGATGKLASADIETYLLEKSRVIFQLKAERDYHIFYQILSNKKPELLDMLLITNNPYDYAFISQGETTVASIDDAEELMATDNAFDVLGFTTEEKNSMYKLTGAIMHFGNMKFKLKQREEQAEPDGTEEADKSAYLMGLNSADLLKGLCHPRVKVGNEYVTKGQNVQQVVYAKGALAKAVYERMFNWMVTRINATLETKQPRQYFIGVLDIAGFEIFDFNSFEQLCINFTNEKLQQFFNHHMFVLEQEEYKKEGIEWEFIDFGMDLQACIDLIEKPMGIMSILEEECMFPKATDMTFKAKLFDNHLGKSSNFQKPRNIKGKPEAHFSLIHYAGTVDYNIIGWLQKNKDPLNETVVDLYKKSSLKMLSSLFANYAGFDTPIEKGKGKAKKGSSFQTVSALHRENLNKLMTNLRSTHPHFVRCIIPNETKSPGVIDNPLVMHQLRCNGVLEGIRICRKGFPNRILYGDFRQRYRILNPAAIPEGQFIDSRKGAEKLLGSLDIDHNQYKFGHTKVFFKAGLLGLLEEMRDERLSRIITRIQAQSRGVLSRMEFKKLLERRDS
notes: Native protein cut by proteases, not a recombinant construct; also called bovine cardiac S1 fragment; PPS-S1-Mava; source: purified from frozen bovine heart (Pel-Freez Biologicals); limited chymotryptic digestion of the full-length myosin, Mono-Q; trypsin present in the crystallization drops
Consider B1, for which the binding result is reported as “binds”.
